Measurements reported in patent publication US20250243243A1, “DISRUPTION OF SONIC HEDGEHOG-SURF4 INTERACTION FOR CANCER TREATMENT” (The Hong Kong University of Science and Technology, priority 2022, published 2025).

Columns and labels:
GST = target: T1, GST (Schistosoma japonicum, UniProt P08515); experiment: Peptide binding assay: immobilized peptides, GST as prey, immunoblot; details: pull down, GST control prey
T1 construct: made in house; host or cells: E. coli
Method: (§1) Immunoprecipitation was performed as described (27). Purification of GST-tagged ShhN^25-49 and GST-tagged […] was performed as described previously (54). GST pull down assays were performed as described previously (54). Peptide binding assay was performed as described previously (27).
(§2) Peptide binding assay was performed as described previously (59). Synthetic CW peptides ([…]; SEQ ID NO: 6), CW^MT peptides ([…]; SEQ ID NO: 9), SURF4^49-61 peptides ([…]; SEQ ID NO: 10), SURF4^49-60 peptides ([…]; SEQ ID NO: 12), or RRFR peptides ([…]; SEQ ID NO: 11) were purchased from GenScript and coupled to thiopyridone-Sepharose 6B beads (Sigma-Aldrich) via the added C-terminal cysteine residue. For binding experiments, 2 ? g purified GST-tagged SURF4^49-60 or Shh^25-49-GST was preincubated at 4° C. for 30 min in a total volume of […] HK buffer. After incubation, […] buffer containing around 5 ? l beads containing 5 nmol of peptides was added to the reaction mixture for 1 h at 4° C. The beads were washed four times with […] of HK buffer and analyzed by immunoblotting.

Shh^25-49-GST = target: T2, Shh^25-49-GST (Mus musculus, UniProt Q62226); experiment: Peptide binding assay: immobilized SURF4 luminal peptides, Shh^25-49-GST as prey, immunoblot; parameters: species or system human; details: pull down, immunoblotting with anti-GST antibodies
T2 construct: C-terminal GST-tagged Shh^25-49; made in house; host or cells: E. coli
T2 sequence (Q62226 25-49): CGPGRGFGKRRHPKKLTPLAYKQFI
Method: as §1, §2

[1] = target: T3, interaction between ShhN and SURF4 (Mus musculus, UniProt Q62226); experiment: GST pull down of SURF4-HA from HEK293T lysates by ShhN^25-49-GST in the presence of heparin; format: binding, human
T3 construct: Purified GST-tagged human ShhN^25-49 was incubated with lysates; made in house; host or cells: ShhN25-49-GST from E. coli; SURF4-HA in lysates of transfected HEK293T cells
Method: as §1
Purification of GST-tagged ShhN^25-49 and GST-tagged SURF4^49-60 was performed as described previously (58). GST pull down assays were carried out with 10 μl of compact GSH beads bearing around 5 ? g of GST-tagged ShhN^25-49. The beads were incubated with […] of 0.5 mg/ml of cell lysates from HEK293T cells transfected with HA-SURF4 in HKT buffer at pH 6.0 or 7.2 with mixing at 4° C. overnight. After incubation, the beads were washed three times with […] of HKT buffer and twice with […] of HK buffer, and the bound material was analyzed by immunoblotting.

GST-SURF4^49-60 = target: T4, GST-SURF4^49-60 (Homo sapiens, UniProt O15260); experiment: Peptide binding assay: peptides immobilized on thiopyridone sepharose 6B beads, GST-SURF4^49-60 as prey, immunoblot; details: pull down, immunoblotting with anti-GST antibodies
T4 construct: N-terminal GST-tagged SURF4^49-60; made in house; host or cells: E. coli
Method: as §1, §2

T1 sequence (P08515 whole entry): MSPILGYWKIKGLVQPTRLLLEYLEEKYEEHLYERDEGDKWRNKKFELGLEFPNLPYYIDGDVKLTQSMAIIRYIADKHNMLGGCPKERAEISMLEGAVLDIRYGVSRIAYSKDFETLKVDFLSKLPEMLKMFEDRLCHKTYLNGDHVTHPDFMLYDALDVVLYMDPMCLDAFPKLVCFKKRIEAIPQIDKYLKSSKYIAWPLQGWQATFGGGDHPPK

What does the source list for “SURF4 luminal peptides: First luminal loop of SURF4, SEQRDYIDTTWNC (SEQ ID NO: 10)”?
binding of GST to immobilized peptides (GST): not GST interacts; interaction of Shh^25-49-GST with immobilized SURF4 luminal peptides (Shh^25-49-GST): interacts

What does the source list for heparin?
inhibition of the interaction between ShhN and SURF4 ([1]; indicated concentrations of heparin): inhibited the interaction between ShhN and SURF4 in a concentration-dependent manner; inhibition of the ShhN-SURF4 interaction at pH 6.0 ([1]; pH 6.0): still inhibits the ShhN-SURF4 interaction

With “RRFR peptides: Peptides corresponding to the first intracellular loop of Frizzled6, VRRFRYPERPC (SEQ ID NO: 11)” as the substance, how does the “level of GST-SURF4^49-60 bound to immobilized peptides” value (GST-SURF4^49-60) read?
The value was “significantly lower than that bound to the CW peptides”.

Which “level of GST-SURF4^49-60 bound to immobilized peptides” value (GST-SURF4^49-60) does the source give for “CW(KR-AA) peptides: Alanine substituted mutant of the CW peptide, AAAHPAAC (SEQ ID NO: 9)” here?
The value was “bound more efficiently to the wild-type CW sequence than an alanine substituted mutant”.
